According to patent publication US20260265390A1 (SHANDONG SIMCERE BIOPHARMACEUTICAL, published 2026):

T1: human BCMA (B cell maturation antigen), expressed on cells (human, UniProt Q02223 1-184)
T1 construct: whole, on cells; Overexpressed on Flp-in CHO cells; also called Flp-inCHO-human BCMA cells; CD269
T1 sequence (looked up): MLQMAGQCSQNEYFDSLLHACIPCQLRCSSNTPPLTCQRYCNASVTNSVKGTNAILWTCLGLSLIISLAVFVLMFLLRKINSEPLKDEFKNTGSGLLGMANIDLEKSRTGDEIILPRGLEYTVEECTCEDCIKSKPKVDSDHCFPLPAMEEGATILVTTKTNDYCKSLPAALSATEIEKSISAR


Columns and labels:
[1] = biological target: T2, monkey CD3, on activated monkey PBMC (monkey); assay: FACS, activated monkey PBMC
T2 construct: whole, on cells

[2] = biological target: T3, human GPRC5D, expressed on cells (human, UniProt Q9NZD1 1-345); assay: FACS, CHOK1-human GPRC5D cells
T3 construct: whole, on cells; Overexpressed on CHOK1 cells; also called CHOK1-human GPRC5D cells
Protocol: (§1) Flp-inCHO-human BCMA cells and CHOK1-human GPRC5D cells were scale-up cultured in T-75 cell culture flask to the logarithmic growth phase, respectively, and the cells were pipetted to obtain a single cell suspension. After the cells were counted and centrifuged, the cell precipitate was resuspended to 2×10⁶ cells per milliliter with a FACS buffer (PBS+2% fetal bovine serum). The suspension was added to a 96-well FACS reaction plate at 50 μl/well. 8 concentrations of the anti-BCMA-GPRC5D-CD3 antibodies or control antibodies were added at 50 μl/well, wherein gradient dilution was performed at a dilution ratio of 5 from a concentration of 100 nM. The cells were incubated at 4° C. for 1 h. The obtained mixture was centrifuged and washed 3 times with a PBS buffer. […] The obtained mixture was centrifuged and washed 3 times with a PBS buffer. 100 μl of the mixture was taken for detection and result analysis by FACS (FACS Canto™, purchased from BD Company). Data analysis was performed by software (FlowJo) to obtain the mean fluorescence intensity (MFI) of the cells. Then, a software (GraphPad Prism8) was used for analysis, data fitting and EC50 calculation.

[3] = biological target: T1, human BCMA (B cell maturation antigen), …; assay: FACS, Flp-inCHO-human BCMA cells
Protocol: as §1

[4] = biological target: T4, human CD3, endogenous on Jurkat cells and on activated human PBMC (human, UniProt P07766 23-207; P04234 22-171); assay: FACS, activated human PBMC
T4 construct: whole, on cells; CD3 complex as it stands on T cells

[5] = biological target: T4, human CD3, endogenous on Jurkat cells …; assay: FACS, Jurkat cells

T4 sequence (P07766 23-207, chain 1 of 2): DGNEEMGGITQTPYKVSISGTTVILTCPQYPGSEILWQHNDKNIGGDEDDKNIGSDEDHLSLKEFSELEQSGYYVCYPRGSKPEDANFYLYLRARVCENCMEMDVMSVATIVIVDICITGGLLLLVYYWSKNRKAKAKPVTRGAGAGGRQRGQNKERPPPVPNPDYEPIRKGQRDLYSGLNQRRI
T4 sequence (P04234 22-171, chain 2 of 2): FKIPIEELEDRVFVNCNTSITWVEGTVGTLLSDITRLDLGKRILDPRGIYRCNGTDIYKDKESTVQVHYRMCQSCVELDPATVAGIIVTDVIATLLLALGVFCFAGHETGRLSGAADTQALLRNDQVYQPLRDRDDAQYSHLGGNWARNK
T2 sequence (Q95LI5 22-198): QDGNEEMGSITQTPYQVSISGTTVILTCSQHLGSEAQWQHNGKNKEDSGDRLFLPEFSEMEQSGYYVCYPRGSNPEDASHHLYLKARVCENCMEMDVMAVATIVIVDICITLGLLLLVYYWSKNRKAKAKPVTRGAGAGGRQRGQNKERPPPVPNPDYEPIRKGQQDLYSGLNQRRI
T3 sequence (Q9NZD1 whole entry): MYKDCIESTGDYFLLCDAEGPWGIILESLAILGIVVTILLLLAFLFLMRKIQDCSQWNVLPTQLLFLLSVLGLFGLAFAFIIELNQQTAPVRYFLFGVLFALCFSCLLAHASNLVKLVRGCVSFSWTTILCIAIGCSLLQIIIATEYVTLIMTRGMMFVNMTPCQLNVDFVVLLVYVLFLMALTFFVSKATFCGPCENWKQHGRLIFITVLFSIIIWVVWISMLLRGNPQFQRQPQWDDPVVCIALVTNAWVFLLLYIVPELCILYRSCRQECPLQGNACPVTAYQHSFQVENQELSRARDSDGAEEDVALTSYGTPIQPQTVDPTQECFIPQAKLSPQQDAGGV

| Binder | EC50 [1] | Maximum mean fluorescence intensity [1] | EC50 [2] | EC50 [3] | Maximum mean fluorescence intensity [4] | Maximum mean fluorescence intensity [5] | EC50 [4] | EC50 [5] |
| --- | --- | --- | --- | --- | --- | --- | --- | --- |
| Tri-62 anti-BCMA-GPRC5D-CD3 trispecific antibody (other, Trispecific antibody; Asymmetric (purification method B)) VH 1: EGQMVQSGAEVKKPGSSVKVSCKASGYMFTDHTFHWVRQAPGQGLEWMGYIYPRDQNTKYNEKFKGRVTITADKSTSTAYMELSSLRSEDTAVYYCARAGYYGSSHAMDYWGQGTTVTVSS VL 1: DIQMTQSPSSLSASVGDRVTITCKASQDVSTAVAWYQQKPGKSPRLLIYSASSRYTGVPSRFSGSGSGTDFTFTISSLQPEDIATYYCQQLYSTPWTFGGGTKVEIK VH 2: EVQLVQSGAEVKKPGSSVKVSCKASGYTFTSYGISWVRQAPGQGLEWMGEIYPRSGNTYYNEKFKGRVTLTADKSTSTAYMELSSLRSEDTAVYYCARGRAYGRNYPMDYWGQGTTVTVSS VL 2: EIVLTQSPATLSLSPGERATLSCRASQSIGTSIHWYQQKPGQSPRLLIKYASESISGIPARFSGSGSGTDFTLTISSLEPEDFAVYYCQQSNSWPYTFGGGTKVEIK VH 3: EVQLVESGGGVVQPGRSLRLSCAASGFTFTDYYMSWVRQAPGKGLEWVAMSRNKAKGHTIEYSSSVKGRFTISRDNSKNTLYLQMNSLRAEDTAVYYCARDTYESYDGYFDVWGQGTTVTVSS VL 3: DIVMTQSPDSLAVSLGERATINCKSSQSLFNSRSRKNYLAWYQQKPGQTPKLLIYWASIRESGVPDRFSGSGSGTDFTLTISSLQAEDVAVYYCKQSYYLYTFGQGTKLEIK chain 1: ESKYGPPCPPCPAPEAAGGPSVFLFPPKPKDTLMISRTPEVTCVVVDVSQEDPEVQFNWYVDGVEVHNAKTKPREEQFNSTYRVVSVLTVLHQDWLNGKEYKCKVSNKGLPSSIEKTISKAKGQPREPQVYTLPPSQEEMTKNQVSLWCLVKGFYPSDIAVEWESNGQPENNYKTTPPVLDSDGSFFLYSRLTVDKSRWQEGNVFSCSVMHEALHNHYTQKSLSLSLG chain 2: ESKYGPPCPPCPAPEAAGGPSVFLFPPKPKDTLMISRTPEVTCVVVDVSQEDPEVQFNWYVDGVEVHNAKTKPREEQFNSTYRVVSVLTVLHQDWLNGKEYKCKVSNKGLPSSIEKTISKAKGQPREPQVYTLPPSQEEMTKNQVSLSCAVKGFYPSDIAVEWESNGQPENNYKTTPPVLDSDGSFFLVSRLTVDKSRWQEGNVFSCSVMHEALHNHYTQKSLSLSLG | 85.5 nM | 740 | 0.4 nM | 14.5 nM | 452 | 462 |  |  |
| Tri-49 anti-BCMA-GPRC5D-CD3 trispecific antibody (other, Trispecific antibody; Asymmetric (purification method B)) VHH: EVQLVESGGGLVQPGGSLRLSCAASESISSIHIMAWYRQAPGKQRELVAGIRNDGSTVYVDSVKGRFTISRDNAKNSLYLQMNSLRAEDTAVYYCNADQGFGSYSEWERRSRWGQGTTVTVSS VH 1: EVQLVQSGAEVKKPGSSVKVSCKASGYTFTSYGISWVRQAPGQGLEWMGEIYPRSGNTYYNEKFKGRVTLTADKSTSTAYMELSSLRSEDTAVYYCARGRAYGRNYPMDYWGQGTTVTVSS VL 1: EIVLTQSPATLSLSPGERATLSCRASQSIGTSIHWYQQKPGQSPRLLIKYASESISGIPARFSGSGSGTDFTLTISSLEPEDFAVYYCQQSNSWPYTFGGGTKVEIK VH 2: EVQLVESGGGVVQPGRSLRLSCAASGFTFTDYYMSWVRQAPGKGLEWVAMSRNKAKGHTIEYSSSVKGRFTISRDNSKNTLYLQMNSLRAEDTAVYYCARDTYESYDGYFDVWGQGTTVTVSS VL 2: DIVMTQSPDSLAVSLGERATINCKSSQSLFNSRSRKNYLAWYQQKPGQTPKLLIYWASIRESGVPDRFSGSGSGTDFTLTISSLQAEDVAVYYCKQSYYLYTFGQGTKLEIK chain 1: ESKYGPPCPPCPAPEAAGGPSVFLFPPKPKDTLMISRTPEVTCVVVDVSQEDPEVQFNWYVDGVEVHNAKTKPREEQFNSTYRVVSVLTVLHQDWLNGKEYKCKVSNKGLPSSIEKTISKAKGQPREPQVYTLPPSQEEMTKNQVSLWCLVKGFYPSDIAVEWESNGQPENNYKTTPPVLDSDGSFFLYSRLTVDKSRWQEGNVFSCSVMHEALHNHYTQKSLSLSLG chain 2: ESKYGPPCPPCPAPEAAGGPSVFLFPPKPKDTLMISRTPEVTCVVVDVSQEDPEVQFNWYVDGVEVHNAKTKPREEQFNSTYRVVSVLTVLHQDWLNGKEYKCKVSNKGLPSSIEKTISKAKGQPREPQVYTLPPSQEEMTKNQVSLSCAVKGFYPSDIAVEWESNGQPENNYKTTPPVLDSDGSFFLVSRLTVDKSRWQEGNVFSCSVMHEALHNHYTQKSLSLSLG | 59.4 nM |  |  |  |  |  | 31.8 nM | 157 nM |
